# Reference: the RNAGym collection of RNA variant scans (doi:10.7554/elife.80360)
# B1: CPEB3 Ribozyme (parent)
# chain: GGGGGCCACAGCAGAAGCGUUCACGUCGCGGCCCCUGUCAGAUUCUGGUGAAUCUGCGAAUUCUGCUGU
# Variants of: B1
# Test: self-cleavage, relative activity (ratio to wild type); higher = more cleavage; co-transcriptional
row,Variant,self-cleavage
1,GGGGGCCACAGCAGAACCGUUCACGUCGCGGCCCCUGUCAGAUUCUGGUGAAUCUGCGAAUUUUGCUGU,0.139
2,GGGGGCCACAGCAGAACCGUUCACGUCGCGGCCCCUGUCAGAUUCUGGUGAAUCUGCGAAUUGUGCUGU,0.103
3,GGGGGCCACAGCAGAACCGUUCACGUAGCGGCCCCUGUCAGAUUCUGGUGAAUCUGCGAAUUCUGCUGU,0.129
4,GGGGGCCACAGCAGAACCGUUCACGUGGCGGCCCCUGUCAGAUUCUGGUGAAUCUGCGAAUUCUGCUGU,0.156
5,GGGGGCCACAGCAGAACCGUUCACGUCGCGGCCCCUGUCAGAUUCUGGUGGAUCUGCGAAUUCUGCUGU,0.126
6,GGGGGCCACAGCAGAACCGUUCACGUCGCGGCCCCUGUCAGAUUCUGGUGUAUCUGCGAAUUCUGCUGU,0.173
7,GGGGGCCACAGCAGAAACGUUCACGUCGCGGCCCCUGUCAGAUUCUGGUGAAUCUGCGAAUUCGGCUGU,0.256
8,GGGGGCCACAGCAGAAACGUUCACGUCGCGGCCCCUGUCAGAUUCUGGUGAAUCUGCGAAUUCCGCUGU,0.242
9,GGGGGCCACAGCAGAACCGUUCACGUCUCGGCCCCUGUCAGAUUCUGGUGAAUCUGCGAAUUCUGCUGU,0.111
10,GGGGGCCACAGCAGAACCGUUCACGUCCCGGCCCCUGUCAGAUUCUGGUGAAUCUGCGAAUUCUGCUGU,0.129
11,GGGGGCCACAGCAGAACCGUUCACGUCACGGCCCCUGUCAGAUUCUGGUGAAUCUGCGAAUUCUGCUGU,0.127
12,GGGGGCCACAGCAGAACCGUUCACGUCGCGGCCCCUGUCAGAUUCUCGUGAAUCUGCGAAUUCUGCUGU,0.212
13,GGGGGCCACAGCAGAACCGUUCACGUCGCGCCCCCUGUCAGAUUCUGGUGAAUCUGCGAAUUCUGCUGU,0.14
14,GGGGGCCACAGCAGAACCGUUCACGUCGCGUCCCCUGUCAGAUUCUGGUGAAUCUGCGAAUUCUGCUGU,0.103
15,GGGGGCCACAGCAGAACCGUUCACGUCGCGGCCCCUGUCAGUUUCUGGUGAAUCUGCGAAUUCUGCUGU,0.151
16,GGGGGCCACAGCAGAACCGUUCACGUCGCGGCCCCUGUCAGCUUCUGGUGAAUCUGCGAAUUCUGCUGU,0.14
17,GGGGGCCACAGCAGAACCGUUCACGUCGCGGUCCCUGUCAGAUUCUGGUGAAUCUGCGAAUUCUGCUGU,0.136
18,GGGGGCCACAGCAGAACCGUUCACGUCGCGGACCCUGUCAGAUUCUGGUGAAUCUGCGAAUUCUGCUGU,0.113
19,GGGGGCCACAGCAGAACCGUUCACGUCGCGGCCCCUGUCAGAUUGUGGUGAAUCUGCGAAUUCUGCUGU,0.142
20,GGGGGCCACAGCAGAACCGUUCACGUCGCGGCCCCUGUCAGAUUUUGGUGAAUCUGCGAAUUCUGCUGU,0.121
21,GGGGGCCACAGCAGAACCGUUCACGUCGCGGCCCCUGUCAGAUUCUGGUGAAUCUGAGAAUUCUGCUGU,0.147
22,GGGGGCCACAGCAGAACCGUUCACGUCGCGGCCCCUGUCAGAUUCUGGUGAAUCUGUGAAUUCUGCUGU,0.18
23,GGGGGCCACAGCAGAACCGUUCACGUCGCGGCCCCUGUCAGAUUCUGGUGAAUGUGCGAAUUCUGCUGU,0.166
24,GGGGGCCACAGCAGAACCGUUCACGUCGCGGCCCCUGUCAGAUUCUGGUGAAUAUGCGAAUUCUGCUGU,0.1
25,GGGGGCCACAGCAGAACCGUUCACGUCGCGGCCCCUGUCAGAUUCUGGUGAAUCUCCGAAUUCUGCUGU,0.105
26,GGGGGCCACAGCAGAACCGUUCACGUCGCGGCCCCUGUCAGAUUCUGGUGAAUCUUCGAAUUCUGCUGU,0.115

row,Variant,self-cleavage
1,GGGGGCCACAGCAGAACCGUUCACGUCGCGGCCCCUGUCAGAUUCUGGUGAAUCUACGAAUUCUGCUGU,0.103
2,GGGGGCCACAGCAGAACCGUUCACGUCGCGGCCCCUGUCAGAUUCUGGUGAAUCUGCCAAUUCUGCUGU,0.198
3,GGGGGCCACAGCAGAACCGUUCACGUCGCGGCCCCUGUCAGAUUCUGGUGAAUCUGCAAAUUCUGCUGU,0.139
4,GGGGGCCACAGCAGAACCGUUCACUUCGCGGCCCCUGUCAGAUUCUGGUGAAUCUGCGAAUUCUGCUGU,0.107
5,GGGGGCCACAGCAGAACCGUUCACCUCGCGGCCCCUGUCAGAUUCUGGUGAAUCUGCGAAUUCUGCUGU,0.12
6,GGGGGCCACAGCAGAACCGUUCACAUCGCGGCCCCUGUCAGAUUCUGGUGAAUCUGCGAAUUCUGCUGU,0.15
7,GGGGGCCACAGCAGAACCGUUCACGUCGCGGCCCCUGUCAGAUUCUGGUGAAUCUGCGUAUUCUGCUGU,0.0945
8,GGGGGCCACAGCAGAACCGUUCACGUCGCGGCCCCUGUGAGAUUCUGGUGAAUCUGCGAAUUCUGCUGU,0.115
9,GGGGGCCACAGCAGAACCGUUCACGUCGCGGCCCCUGUAAGAUUCUGGUGAAUCUGCGAAUUCUGCUGU,0.081
10,GGGGGCCACAGCAGAACCGUUCUCGUCGCGGCCCCUGUCAGAUUCUGGUGAAUCUGCGAAUUCUGCUGU,0.103
11,GGGGGCCACAGCAGAACCGUUCCCGUCGCGGCCCCUGUCAGAUUCUGGUGAAUCUGCGAAUUCUGCUGU,0.178
12,GGGGGCCACAGCAGAACCGUUCGCGUCGCGGCCCCUGUCAGAUUCUGGUGAAUCUGCGAAUUCUGCUGU,0.116
13,GGGGGCCACAGCAGAACCGUUCACGUCGCGGCUCCUGUCAGAUUCUGGUGAAUCUGCGAAUUCUGCUGU,0.139
14,GGGGGCCACAGCAGAACCGUUCACGUCGCGGCACCUGUCAGAUUCUGGUGAAUCUGCGAAUUCUGCUGU,0.152
15,GGGGGCCACAGCAGAACCGUUCACGUCGCGGCCCCUGUCAGAUUCUGGUGAUUCUGCGAAUUCUGCUGU,0.133
16,GGGGGCCACAGCAGAACCGUUCACGUCGCGGCCCCUGUCAGAUUCUGGUGAGUCUGCGAAUUCUGCUGU,0.196
17,GGGGGCCACAGCAGAACCGUUCACGUCGCAGCCCCUGUCAGAUUCUGGUGAAUCUGCGAAUUCUGCUGU,0.154
18,GGGGGCCACAGCAGAACCGUUCACGUCGCCGCCCCUGUCAGAUUCUGGUGAAUCUGCGAAUUCUGCUGU,0.134
19,GGGGGCCACAGCAGAACCGUUCACGUCGCUGCCCCUGUCAGAUUCUGGUGAAUCUGCGAAUUCUGCUGU,0.206
20,GGGGGCCACAGCAGAACCGUUCACGUCGCGGCCCCUAUCAGAUUCUGGUGAAUCUGCGAAUUCUGCUGU,0.0971
21,GGGGGCCACAGCAGAACCGUUCACGUCGCGGCCCCUCUCAGAUUCUGGUGAAUCUGCGAAUUCUGCUGU,0.0977
22,GGGGGCCACAGCAGAACUGUUCACGUCGCGGCCCCUGUCAGAUUCUGGUGAAUCUGCGAAUUCUGCUGU,0.169
23,GGGGGCCACAGCAGAACCGUUCACGUCGCGGCCCCUGUCUGAUUCUGGUGAAUCUGCGAAUUCUGCUGU,0.14
24,GGGGGCCACAGCAGAACCGUUCACGUCGCGGCCCCUGUCGGAUUCUGGUGAAUCUGCGAAUUCUGCUGU,0.124
25,GGGGGCCACAGCAGAACCGUUCACGUCGCGGCCCCUGUCCGAUUCUGGUGAAUCUGCGAAUUCUGCUGU,0.16
26,GGGGGCCACAGCAGAACCGUUCACGUCGCGGCCCCUGUCAGAUUCUGGUAAAUCUGCGAAUUCUGCUGU,0.142

row,Variant,self-cleavage
1,GGGGGCCACAGCAGAACCGUUCACGUCGCGGCCCCUGUCAGAUUCUGGUUAAUCUGCGAAUUCUGCUGU,0.157
2,GGGGGCCACAGCAGAACCCUUCACGUCGCGGCCCCUGUCAGAUUCUGGUGAAUCUGCGAAUUCUGCUGU,0.118
3,GGGGGCCACAGCAGAACCUUUCACGUCGCGGCCCCUGUCAGAUUCUGGUGAAUCUGCGAAUUCUGCUGU,0.0627
4,GGGGGCCACAGCAGAACCAUUCACGUCGCGGCCCCUGUCAGAUUCUGGUGAAUCUGCGAAUUCUGCUGU,0.103
5,GGGGGCCACAGCAGAACCGUUCACGUCGCGGCCUCUGUCAGAUUCUGGUGAAUCUGCGAAUUCUGCUGU,0.174
6,GGGGGCCACAGCAGAACCGUUCACGUCGCGGCCACUGUCAGAUUCUGGUGAAUCUGCGAAUUCUGCUGU,0.18
7,GGGGGCCACAGCAGAACCGUUCACGUCGCGGCCGCUGUCAGAUUCUGGUGAAUCUGCGAAUUCUGCUGU,0.157
8,GGGGGCCACAGCAGAACCGUUCACGUCGCGGCCCCUGUCAGAUUCUGUUGAAUCUGCGAAUUCUGCUGU,0.194
9,GGGGGCCACAGCAGAACCGUUCACGUCGCGGCCCCUGUCAGAUUCUGCUGAAUCUGCGAAUUCUGCUGU,0.158
10,GGGGGCCACAGCAGAAACGUUCACGUCGCGGCCCCUGUCAGAUUCUGGUGAAUCUGCGAAUUCUGCUGG,0.677
11,GGGGGCCACAGCAGAAACGUUCACGUCGCGGCCCCUGUCAGAUUCUGGUGAAUCUGCGAAUUCUGCUGC,0.883
12,GGGGGCCACAGCAGAACCGUUCACGUCGCGGCCCCUGUCAGAUUCUGGUGAAUCUGCGAAUUCUGUUGU,0.152
13,GGGGGCCACAGCAGAAACGUUCACGUCGCGGCCCCUGUCAGAUUCUGGUGAAUCUGCGAAUUCUGCAGU,0.45
14,GGGGGCCACAGCAGAAACGUUCACGUCGCGGCCCCUGUCAGAUUCUGGUGAAUCUGCGAAUUCUGCGGU,0.542
15,GGGGGCCACAGCAGAACCGUUAACGUCGCGGCCCCUGUCAGAUUCUGGUGAAUCUGCGAAUUCUGCUGU,0.117
16,GGGGGCCACAGCAGAACCGUUGACGUCGCGGCCCCUGUCAGAUUCUGGUGAAUCUGCGAAUUCUGCUGU,0.156
17,GGGGGCCACAGCAGAACCGUUCACGUCGCGGCCCCUGUCACAUUCUGGUGAAUCUGCGAAUUCUGCUGU,0.156
18,GGGGGCCACAGCAGAACCGUUCACGUCGCGGCCCCUGUCAUAUUCUGGUGAAUCUGCGAAUUCUGCUGU,0.123
19,GGGGGCCACAGCAGAACCGUUCACGUCGAGGCCCCUGUCAGAUUCUGGUGAAUCUGCGAAUUCUGCUGU,0.367
20,GGGGGCCACAGCAGAACCGUUCACGUCGCGGCCCCUGUCAGAUUCUGGUGAAUCUGCGACUUCUGCUGU,0.109
21,GGGGGCCACAGCAGAACCGUUCACGUCGCGGCCCCUGUCAGAUUCUGGUGAAUCUGCGAUUUCUGCUGU,0.183
22,GGGGGCCACAGCAGAACCGUUCACGUCGCGGCCCCUGUCAGAUUCUGGUGAAUCUGCGAGUUCUGCUGU,0.127
23,GGGGGCCACAGCAGAACCGUUCACGUCGCGGCCCAUGUCAGAUUCUGGUGAAUCUGCGAAUUCUGCUGU,0.135
24,GGGGGCCACAGCAGAACCGUUCAGGUCGCGGCCCCUGUCAGAUUCUGGUGAAUCUGCGAAUUCUGCUGU,0.208
25,GGGGGCCACAGCAGAACCGUUCAAGUCGCGGCCCCUGUCAGAUUCUGGUGAAUCUGCGAAUUCUGCUGU,0.141
26,GGGGGCCACAGCAGAACCGUUCAUGUCGCGGCCCCUGUCAGAUUCUGGUGAAUCUGCGAAUUCUGCUGU,0.109
